From patent US20170355777A1 (UNIVERSITY OF LEICESTER, published 2017)

T1: recombinant MLP (rMLP) C-terminal fusion protein: N-terminal histidine tag fused to residues 279-431 of human … (human)
T1 construct: Expressed in E. coli from pRSETB and purified on a nickel column; ran at 28 kDa; also called rMLP C-terminal protein; recombinant MLP C-terminal protein
T1 chain: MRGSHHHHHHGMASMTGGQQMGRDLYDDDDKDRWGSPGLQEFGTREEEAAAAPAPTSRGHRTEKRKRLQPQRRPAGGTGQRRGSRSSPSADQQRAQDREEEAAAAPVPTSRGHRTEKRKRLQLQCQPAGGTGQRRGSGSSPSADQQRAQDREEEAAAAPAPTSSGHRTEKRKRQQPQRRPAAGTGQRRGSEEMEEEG

B1: anti-MLP monoclonal antibody αMLP Clone B (hybridoma ATCC PTA-121700) (antibody, IgG2a, V domains shown)
VH: EVQLQQSGPELVKPGASVKISCKASGYSFTGFYIHWVKQSHVKSLEWIGRIHPYNGAPTYNQNFKDRARLTVHESSSTAYMEFFGLTSEDSAVYYCARERVYYYGSTYEFDFWGQGTTLTVSS
VL: DVLMTQTPLSLPVSLGDQASISCRSGQSIVHSSGVTYLSWYLQKPGQSPKLLIYKVFYRFSGVPDRFSGSGSGTDFTLKISRVEAEDLGVYYCFQGSHVPPTFGTGTKLELK
notes: also called mAb clone B
B2: anti-MLP monoclonal antibody αMLP Clone 11 (hybridoma ATCC PTA-121699) (antibody, IgG2b, V domains shown)
VH: EVQLQQSGPELVKPGASVKISCKASGYAFTGFYIHWMKQSHVKSLEWIGRIHPYNGATSYNQNFKDRASLTVDESSSTAYMEFYGLTSEDSAVYYCARERVYYYGSTYEFDSWGQGTTLTVSS
VL: DVLMTQTPLSLPVSLGDQASISCRSGQSIVHTSGVTYLSWYLQKPGQSPKLLIYKVFYRFSGVPDRFSGSGSGTDFTLKISRVESEDLGVYYCFQGSHVPPTFGAGTKLELK
notes: also called mAb clone 11
B3: anti-MLP monoclonal antibody αMLP Clone C (hybridoma ATCC PTA-121701) (antibody, IgG1, V domains shown)
VH: DVKLQESGGGLVQPGGSMKLSCVASGFTFSNYWMNWVRQSPEKGLEWVAEIRLKSNNYAINYAESVKGRFTISRDDSKSSVYLDMNNLRAEDTGIYYCTSYYGSSLYYLDYWGQGTTLTVSS
VL: QIVLTQSPVIMSASPGEKVTISCSASSSVSNMYWYQQKPGSSPKAWIYRTSNLASGVPARFSGSGSGTSYSLTISSMEAEDAATYYCHQYQSYPRTFGAGTKLEIK
notes: also called 2(C); mAb clone C

Biological target: T1, recombinant MLP (rMLP) C-terminal …
Experiment: KD (binding to rMLP); method not described at the table

Point of comparison: B2, Kd 0.2 nM. Against it:
- B1 — not separable, < 1 nM
- B3 — not separable, < 1 nM
